Assay results: FireProtDB (doi:10.1021/bi002792f)

B1: Lysozyme C, P61626 (parent)
chain: MKALIVLGLVLLSVTVQGKVFERCELARTLKRLGMDGYRGISLANWMCLAKWESGYNTRATNYNAGDRSTDYGIFQINSRYWCNDGKTPGAVNACHLSCSALLQDNIADAVACAKRVVRDPQGIRAWVAWRNRCQNRDVRQYVQGCGV

Variants of: B1
Details: Homo sapiens, pH 2.7, Thermal, DSC, Gly-HCl 0.05 M, reversible: yes, structure 1LZ1, whole UniProt chain shown

| Variant | ddG of mutation (higher = less stable) (64.9 °C) [kcal/mol] | heat capacity change of unfolding (64.9 °C) [kcal/mol/K] | unfolding enthalpy (calorimetric) (64.9 °C) [kcal/mol] | Tm [°C] | change of melting temperature, mutant - wild type (higher = more stable) [°C] | heat capacity change of unfolding [kcal/mol/K] |
| --- | --- | --- | --- | --- | --- | --- |
| MKALIVLGLVLLSVTVQGKVFERCETARTLKRLGMDGYRGISLANWMCLAKWESGYNTRATNYNAGDRSTDYGIFQINSRYWCNDGKTPGAVNACHLSCSALLQDNIADAVACAKRVVRDPQGIRAWVAWRNRCQNRDVRQYVQGCGV [L26T] | 3.73 | 1.39 | 107 | 52.5 | -12.4 | 1.39 |
| MKALIVLGLVLLSVTVQGKVFERCELSRTLKRLGMDGYRGISLANWMCLAKWESGYNTRATNYNAGDRSTDYGIFQINSRYWCNDGKTPGAVNACHLSCSALLQDNIADAVACAKRVVRDPQGIRAWVAWRNRCQNRDVRQYVQGCGV [A27S] | – | 1.27 | 106 | 64.8 | -0.1 | 1.27 |
| MKALIVLGLVLLSVTVQGKVFERCELARTLKRLGMDGYRGISLANWMCLAKWESGYNTRATNYNAGDRSTDYGIFQINSRYWCNDGKTPGAVNACHLSCSALLQDNIADAVACAKRVTRDPQGIRAWVAWRNRCQNRDVRQYVQGCGV [V118T] | – | 1.53 | 107 | – | – | – |
| MKALIVLGLVLLSVTVQGKVFERCELARTLKRLGMDGYRGISLANWMCLAKWESGYNTRATNYNAGDRSTDYGIFQINSRYWCNDGKTPGAVNACHLSCSALLQDNIADSVACAKRVVRDPQGIRAWVAWRNRCQNRDVRQYVQGCGV [A110S] | – | 2.01 | 104 | 67.5 | 2.6 | 2.01 |
| MKALIVLGLVLLSVTVQGKVFERCELARTLKRLGMDGYRGISLANWMCLAKWESGYNTRATNYNAGDRSTDYGIFQINSRYWCNDGKTPGAVNACHLSCSALLQDNIADATACAKRVVRDPQGIRAWVAWRNRCQNRDVRQYVQGCGV [V111T] | 0.67 | 1.12 | 101 | 62.6 | -2.3 | 1.12 |
| MKALIVLGLVLLSVTVQGKVFERCELARTLKRLGMDGYRGISLANWMCLAKWESGYNTRATNYNAGDRSTDYGIFQINSRYWCNDGKTPGAVNACHLSCSALLQDNIADAVACSKRVVRDPQGIRAWVAWRNRCQNRDVRQYVQGCGV [A114S] | 1 | 1.29 | 103 | 61.6 | -3.3 | 1.29 |
| MKALIVLGLVLLSVTVQGKVFERCELARTLKRLGMDGYRGISLANWMCLAKWESGYNTRATNYNAGDRSTDYGIFQINSRYWCNDGKTPGAVNACHLSCSALLQDNIADAVACAKRTVRDPQGIRAWVAWRNRCQNRDVRQYVQGCGV [V117T] | – | 1.41 | 104 | 63.3 | -1.6 | 1.41 |
| MKALIVLGLVLLSVTVQGKVFERCELARTLKRLGMDGYRGISLANWMCLSKWESGYNTRATNYNAGDRSTDYGIFQINSRYWCNDGKTPGAVNACHLSCSALLQDNIADAVACAKRVVRDPQGIRAWVAWRNRCQNRDVRQYVQGCGV [A50S] | 0.33 | 1.65 | 111 | 63.9 | -1 | 1.65 |
